Measurements taken from article PMC10326918.

Molecular target: Concanavalin A (Canavalia ensiformis)
Assay: native MS; static nESI under native-like conditions, 200 mM ammonium acetate pH 6.8, 5 uM monomer; tetramer [M + 21H]21+ ions (m/z 4901) selected with the quadrupole, then 193 nm UVPD or HCD, read by Orbitrap or orthogonal TOF/TPX3; tetramer dissociates to monomers and trimers

stoichiometry N: 4
Substance: Concanavalin A (natural protein)
